Reference: publication PMC3610751

Tests used:
[1] = molecular target: wild type nucleoprotein of influenza A virus H1N1 strain A/WSN/33 (influenza A virus H1N1 strain A/WSN/33); assay: crystal structure
[2] = tested on: NP isolated from virus (Influenza A virus (strain for filter assay not stated; A/PR/8/34 used for MS)); assay: filter binding; conditions: running buffer with 300 mM NaCl and 0.025% P20, 25 C, conditions not given
[3] = tested on: wt NP, recombinant (filter binding) (Influenza A virus (A/WSN/33, H1N1)); assay: filter binding; conditions: running buffer with 300 mM NaCl and 0.025% P20, 25 C, conditions not given

“wild type nucleoprotein of influenza A virus H1N1 strain A/WSN/33 (natural protein)” gave a stoichiometry N [1] of 3.

Substance 81 nt panhandle RNA has a Kd [2] of 30 nM and a Kd [3] of 30 nM.
